Drawing on article PMC12443421 (2025), this text covers Kd for one molecule.

In assay [1] the target is wild-type unmodified 147 bp nucleosome (nucleosome core particle) (human, UniProt P04908 1-130; P62807 1-126; Q71DI3 1-136; P62805 1-103).
The target of assay [2] is wild-type 185 bp nucleosome (with symmetric flanking DNA) (human, UniProt P04908 1-130; P62807 1-126; Q71DI3 1-136; P62805 1-103).

B1: KDM5A^CAT (lysine demethylase 5A, residues 1-801) (domain or fragment)
chain: MAGVGPGGYAAEFVPPPECPVFEPSWEEFTDPLSFIGRIRPLAEKTGICKIRPPKDWQPPFACEVKSFRFTPRVQRLNELEAMTRVRLDFLDQLAKFWELQGSTLKIPVVERKILDLYALSKIVASKGGFEMVTKEKKWSKVGSRLGYLPGKGTGSLLKSHYERILYPYELFQSGVSLMGVQMPNLDLKEKVEPEVLSTDTQTSPEPGTRMNILPKRTRRVKTQSESGDVSRNTELKKLQIFGAGPKVVGLAMGTKDKEDEVTRRRKVTNRSDAFNMQMRQRKGTLSVNFVDLYVCMFCGRGNNEDKLLLCDGCDDSYHTFCLIPPLPDVPKGDWRCPKCVAEECSKPREAFGFEQAVREYTLQSFGEMADNFKSDYFNMPVHMVPTELVEKEFWRLVSSIEEDVIVEYGADISSKDFGSGFPVKDGRRKILPEEEEYALSGWNLNNMPVLEQSVLAHINVDISGMKVPWLYVGMCFSSFCWHIEDHWSYSINYLHWGEPKTWYGVPSHAAEQLEEVMRELAPELFESQPDLLHQLVTIMNPNVLMEHGVPVYRTNQCAGEFVVTFPRAYHSGFNQGYNFAEAVNFCTADWLPIGRQCVNHYRRLRRHCVFSHEELIFKMAADPECLDVGLAAMVCKELTLMTEEETRLRESVVQMGVLMSEEEVFELVPDDERQCSACRTTCFLSALTCSCNPERLVCLYHPTDLCPCPMQKKCLRYRYPLEDLPSLLYGVKVRAQSYDTWVSRVTEALSANFNHKKDLIELRVMLEDAEDRKYPENDLFRKLRDAVKEAETCASVAQLL
For orientation: Kd means the free concentration of one partner at which half of the binding sites on the other are occupied at equilibrium, for simple one-to-one binding. Consider B1, for which the figures for the Kd in assay [1] and in assay [2] were 4 µM and 3000 nM, respectively.
